Results on one molecule are retold here after article PMC12139779 (bioRxiv, 2025).

In the assay the target is T1, Human KLHDC2 (kelch domain, amino acids 1–362) (human, UniProt Q9Y2U9 1-362, biotin (biotinylated with BirA enzyme)).
T1 sequence: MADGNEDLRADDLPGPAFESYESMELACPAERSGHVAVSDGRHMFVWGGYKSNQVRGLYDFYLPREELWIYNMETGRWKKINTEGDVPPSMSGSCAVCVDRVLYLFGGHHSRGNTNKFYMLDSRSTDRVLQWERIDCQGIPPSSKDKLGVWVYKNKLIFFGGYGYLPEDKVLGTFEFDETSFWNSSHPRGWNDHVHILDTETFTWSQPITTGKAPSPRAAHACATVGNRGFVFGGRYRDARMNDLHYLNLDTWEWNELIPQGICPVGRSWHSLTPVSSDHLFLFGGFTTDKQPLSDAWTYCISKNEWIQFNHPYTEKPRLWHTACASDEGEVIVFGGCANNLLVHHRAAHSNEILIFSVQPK
The experiment in a line: fluorescence polarisation. In general terms: Fluorescence polarisation rises when a labelled molecule tumbles more slowly, as on binding a larger partner.

B1: SelK 8-mer (SPPPMAGG) (peptide)
peptide: SPPPMAGG
For the molecule B1, the binding result is “binds”.
